From paper PMC10154233, “Structure, sequon recognition and mechanism of tryptophan C-mannosyltransferase” (Nature Chemical Biology, 2023)
Square brackets hold non-standard residues; d marks the D form. Pra = C#CC[C@H](N)C(=O)O

Assays:
[1] = target: T1, C. elegans DPY19 (CeDPY19), tryptophan C-mannosyltransferase, with a C-terminal FLAG3 tag (C. elegans, UniProt P34413 1-683); test: cryo-EM structure; CeDPY19-CMT2-Fab-anti-Fab Nb complex (35 uM) with 1 mM acceptor peptide WEHI-1886493, 1-2 h on ice; conditions: both partners purified
T1 construct: C. elegans DPY19 (CeDPY19), synthetic gene construct; Eluted from the FLAG gel with FLAG peptide; no cleavage of the tag is described; also called CMT
T1 sequence: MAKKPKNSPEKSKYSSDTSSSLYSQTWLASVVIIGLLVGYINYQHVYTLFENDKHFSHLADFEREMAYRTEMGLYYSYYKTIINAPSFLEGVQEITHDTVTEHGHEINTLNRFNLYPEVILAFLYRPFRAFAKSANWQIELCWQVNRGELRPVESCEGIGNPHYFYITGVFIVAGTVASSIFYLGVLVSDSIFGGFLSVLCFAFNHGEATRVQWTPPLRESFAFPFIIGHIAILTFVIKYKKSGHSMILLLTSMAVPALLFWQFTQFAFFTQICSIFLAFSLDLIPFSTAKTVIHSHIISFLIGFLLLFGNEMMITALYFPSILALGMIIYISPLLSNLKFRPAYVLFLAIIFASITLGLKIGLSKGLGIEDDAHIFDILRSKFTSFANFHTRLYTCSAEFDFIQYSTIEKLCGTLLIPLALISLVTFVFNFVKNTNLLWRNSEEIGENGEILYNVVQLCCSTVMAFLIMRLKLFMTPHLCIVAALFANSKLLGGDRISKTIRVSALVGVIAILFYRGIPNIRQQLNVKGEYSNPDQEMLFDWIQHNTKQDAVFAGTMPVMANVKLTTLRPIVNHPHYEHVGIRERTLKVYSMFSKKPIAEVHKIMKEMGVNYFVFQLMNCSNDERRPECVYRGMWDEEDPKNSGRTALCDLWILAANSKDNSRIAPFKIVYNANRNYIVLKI

[2] = target: T2, Biotinylated C. elegans DPY19 (CeDPY19) with a C-terminal Avitag (Caenorhabditis elegans (strain not …, UniProt P34413, biotin (enzymatic, BirA) on the Avitag)); test: ELISA; multipoint protein ELISA; 30 nM biotinylated CeDPY19 immobilised on a neutravidin-coated plate, threefold serial dilutions of purified Fab from 4 uM, 20 min, 4 °C; 20 mM HEPES pH 7.4, 150 mM NaCl, 0.01% LMNG, 0.001% CHS, 0.5% BSA; detected with HRP-protein L; conditions: both partners purified
T2 construct: C. elegans DPY19 (CeDPY19); also called biotinylated CeDPY19; target; not shown: Avitag, C-terminal, kept

B1: Synthetic acceptor octapeptide WEHI-1886493 (Ac-Pra-GSWAKWS-NH2) (peptide)
peptide: Ac-[Pra]GSWAKWS-NH2
SMILES: C#CC[C@H](NC(C)=O)C(=O)NCC(=O)N[C@@H](CO)C(=O)N[C@@H](Cc1c[nH]c2ccccc12)C(=O)N[C@@H](C)C(=O)N[C@@H](CCCCN)C(=O)N[C@@H](Cc1c[nH]c2ccccc12)C(=O)N[C@@H](CO)C(N)=O
notes: Eight residues in all: Pra (propargylglycine) followed by GSWAKWS; also called acceptor peptide; source: synthetic peptide
- binding result [1]: binds

B2: CMT2-Fab, synthetic Fab selected by phage display against CeDPY19 (Fab, V domains shown)
VH: EVQLVESGGGLVQPGGSLRLSCAASGFNISSSSIHWVRQAPGKGLEWVASISSSYGYTSYADSVKGRFTISADTSKNTAYLQMNSLRAEDTAVYYCARSSSVYWSWWGYSAFDYWGQGTLVTVSS
VL: DIQMTQSPSSLSASVGDRVTITCRASQSVSSAVAWYQQKPGKAPKLLIYSASSLYSGVPSRFSGSRSGTDFTLTISSLQPEDFATYYCQQGASEPITFGQGTKVEIK
notes: source: E. coli C43 (Pro+), purified (Protein L, Resource S)
- EC50 [2]: 17 nM
